First the molecules themselves.
B2: QSY9-labeled recombinant mouse GAC (FRET acceptor) (enzyme)
chain: SSSPSEILQELGKGGTPPQQQQQQQQQPGASPPAAPGPKDSPGETDAFGNSEGKEMVAAGDNKIKQGLLPSLEDLLFYTIAEGQEKIPVHKFITALKSTGLRTSDPRLKECMDMLRLTLQTTSDGVMLDKDLFKKCVQSNIVLLTQAFRRKFVIPDFMSFTSHIDELYESAKKQSGGKVADYIPQLAKFSPDLWGVSVCTVDGQRHSIGDTKVPFCLQSCVKPLKYAIAVNDLGTEYVHRYVGKEPSGLRFNKLFLNEDDKPHNPMVNAGAIVVTSLIKQGVNNAEKFDYVMQFLNKMAGNEYVGFSNATFQSERESGDRNFAIGYYLKEKKCFPEGTDMVGILDFYFQLCSIEVTCESASVMAATLANGGFCPITGERVLSPEAVRNTLSLMHSCGMYDFSGQFAFHVGLPAKSGVAGGILLVVPNVMGMMCWSPPLDKMGNSVKGIHFCHDLVSLCNFHNYDNLRHFAKKLDPRREGGDQRHSFGPLDYESLQQELALKDTVWKKVSPESSDDTSTTVVYRMESLGERS
modifications: labeled with QSY9 succinimidyl ester (sites not given)
notes: also called QSY9-GAC; QSY9-labeled GAC; not shown: N-terminal His tag and thrombin cleavage site from pET28a
B4: Alexa Fluor 488-labeled recombinant mouse GAC (FRET donor) (enzyme)
chain: SSSPSEILQELGKGGTPPQQQQQQQQQPGASPPAAPGPKDSPGETDAFGNSEGKEMVAAGDNKIKQGLLPSLEDLLFYTIAEGQEKIPVHKFITALKSTGLRTSDPRLKECMDMLRLTLQTTSDGVMLDKDLFKKCVQSNIVLLTQAFRRKFVIPDFMSFTSHIDELYESAKKQSGGKVADYIPQLAKFSPDLWGVSVCTVDGQRHSIGDTKVPFCLQSCVKPLKYAIAVNDLGTEYVHRYVGKEPSGLRFNKLFLNEDDKPHNPMVNAGAIVVTSLIKQGVNNAEKFDYVMQFLNKMAGNEYVGFSNATFQSERESGDRNFAIGYYLKEKKCFPEGTDMVGILDFYFQLCSIEVTCESASVMAATLANGGFCPITGERVLSPEAVRNTLSLMHSCGMYDFSGQFAFHVGLPAKSGVAGGILLVVPNVMGMMCWSPPLDKMGNSVKGIHFCHDLVSLCNFHNYDNLRHFAKKLDPRREGGDQRHSFGPLDYESLQQELALKDTVWKKVSPESSDDTSTTVVYRMESLGERS
modifications: labeled with Alexa Fluor 488 succinimidyl ester (sites not given)
notes: not shown: N-terminal His tag and thrombin cleavage site from pET28a

Data set [1] concerns the molecule itself. The data set is described as follows: SEC-MALS of 5 mg/ml protein, self-association (dimer/tetramer), without and after preincubation with BPTES; MW on a log axis [panel C]. From the text: (§1) LS=light scattering; MW=molecular weight. […] Points represent the mean and error bars the standard deviation of three independent experiments.
Data set [2] concerns the target B2. Description: FRET, exchange with excess unlabeled GAC.
The target of data set [3] is B4. The data set is described as follows: FRET exchange (competition): excess unlabeled GAC added to preformed 488-labeled GAC / QSY9-GAC complexes; displaced competitor is QSY9-GAC; with or without 100 mM phosphate or sulfate [panel A].
The target in data set [4] is B4. Description: FRET time trace: 25 nM 488-labeled GAC (donor) + 75 nM QSY9-GAC (acceptor); 100 mM phosphate, sulfate or water added at 10 min [panel A].
Data set [5] deals with the molecule itself. Description: SEC-MALS of 5 mg/ml protein, self-association (dimer/tetramer), without and after preincubation with BPTES; MW on a log axis [panel D].
Description: as §1

For data set [6], the target named is B2. Description: FRET, self-association of labeled GAC in solution.
Data set [7] deals with the molecule itself. Description: SEC-MALS of 5 mg/ml protein, self-association, without and after preincubation with BPTES; MW on a log axis [panel B]. The source says: LS=light scattering; MW=molecular weight.
(In gel filtration, larger molecules generally elute earlier.)

Results on five molecules are retold here after patent US20180100178A1 (CORNELL UNIVERSITY, published 2018).

B1: wild-type recombinant mouse glutaminase C (GAC), residues 73-603, unlabeled (enzyme)
chain: SSSPSEILQELGKGGTPPQQQQQQQQQPGASPPAAPGPKDSPGETDAFGNSEGKEMVAAGDNKIKQGLLPSLEDLLFYTIAEGQEKIPVHKFITALKSTGLRTSDPRLKECMDMLRLTLQTTSDGVMLDKDLFKKCVQSNIVLLTQAFRRKFVIPDFMSFTSHIDELYESAKKQSGGKVADYIPQLAKFSPDLWGVSVCTVDGQRHSIGDTKVPFCLQSCVKPLKYAIAVNDLGTEYVHRYVGKEPSGLRFNKLFLNEDDKPHNPMVNAGAIVVTSLIKQGVNNAEKFDYVMQFLNKMAGNEYVGFSNATFQSERESGDRNFAIGYYLKEKKCFPEGTDMVGILDFYFQLCSIEVTCESASVMAATLANGGFCPITGERVLSPEAVRNTLSLMHSCGMYDFSGQFAFHVGLPAKSGVAGGILLVVPNVMGMMCWSPPLDKMGNSVKGIHFCHDLVSLCNFHNYDNLRHFAKKLDPRREGGDQRHSFGPLDYESLQQELALKDTVWKKVSPESSDDTSTTVVYRMESLGERS
notes: one subunit is described; also called WT GAC; unlabeled GAC; not shown: N-terminal His tag and thrombin cleavage site from pET28a
Take B1: the “Specific activity of WT GAC without phosphate (mol Glu/min mol GAC), against [GAC]” value is “specific activity (triangles, left axis) rises with [GAC] from about 90 at about 85 nM through about 400 at about 430 nM to about 500 at about 1000-1500 nM, flattening; no lower plateau inside the range (linear axis)”. In data set [1], the binding result was “binds”. For the same molecule, the binding result in data set [2] is recorded as “binds”. For the same molecule, in data set [3], the binding result is on record as “binds”. In the case of B2, the binding result in data set [4] is listed as “binds”.

B3: mouse GAC F327W mutant (residues 73-603) (enzyme)
chain: SSSPSEILQELGKGGTPPQQQQQQQQQPGASPPAAPGPKDSPGETDAFGNSEGKEMVAAGDNKIKQGLLPSLEDLLFYTIAEGQEKIPVHKFITALKSTGLRTSDPRLKECMDMLRLTLQTTSDGVMLDKDLFKKCVQSNIVLLTQAFRRKFVIPDFMSFTSHIDELYESAKKQSGGKVADYIPQLAKFSPDLWGVSVCTVDGQRHSIGDTKVPFCLQSCVKPLKYAIAVNDLGTEYVHRYVGKEPSGLRFNKLWLNEDDKPHNPMVNAGAIVVTSLIKQGVNNAEKFDYVMQFLNKMAGNEYVGFSNATFQSERESGDRNFAIGYYLKEKKCFPEGTDMVGILDFYFQLCSIEVTCESASVMAATLANGGFCPITGERVLSPEAVRNTLSLMHSCGMYDFSGQFAFHVGLPAKSGVAGGILLVVPNVMGMMCWSPPLDKMGNSVKGIHFCHDLVSLCNFHNYDNLRHFAKKLDPRREGGDQRHSFGPLDYESLQQELALKDTVWKKVSPESSDDTSTTVVYRMESLGERS
notes: as for B4
B3: the binding result in data set [5] was “binds”.

With B4, the binding result in data set [6] was “binds”.

B5: mouse GAC F327W,D391K double mutant (residues 73-603) (enzyme)
chain: SSSPSEILQELGKGGTPPQQQQQQQQQPGASPPAAPGPKDSPGETDAFGNSEGKEMVAAGDNKIKQGLLPSLEDLLFYTIAEGQEKIPVHKFITALKSTGLRTSDPRLKECMDMLRLTLQTTSDGVMLDKDLFKKCVQSNIVLLTQAFRRKFVIPDFMSFTSHIDELYESAKKQSGGKVADYIPQLAKFSPDLWGVSVCTVDGQRHSIGDTKVPFCLQSCVKPLKYAIAVNDLGTEYVHRYVGKEPSGLRFNKLWLNEDDKPHNPMVNAGAIVVTSLIKQGVNNAEKFDYVMQFLNKMAGNEYVGFSNATFQSERESGKRNFAIGYYLKEKKCFPEGTDMVGILDFYFQLCSIEVTCESASVMAATLANGGFCPITGERVLSPEAVRNTLSLMHSCGMYDFSGQFAFHVGLPAKSGVAGGILLVVPNVMGMMCWSPPLDKMGNSVKGIHFCHDLVSLCNFHNYDNLRHFAKKLDPRREGGDQRHSFGPLDYESLQQELALKDTVWKKVSPESSDDTSTTVVYRMESLGERS
notes: Found as a dimer by SEC-MALS; also called GAC double mutant; dimeric GACF327W,D391K double mutant; not shown: N-terminal His tag and thrombin cleavage site from pET28a
Take B5: the binding result in data set [7] is listed as “binds”.
